Substrate in the data set: NCCc1c[nH]c2ccc(O)cc12
The experiment in a line: HPLC with fluorescence detection of N-acetylserotonin; Lineweaver-Burk plot. To be noted: acetyl-CoA as co-substrate (0.5 mM in the standard assay), 100 mM potassium phosphate, standard assay pH 8.8, 45 °C, 30 min, serotonin 50 to 2000 μM. The format is biochemical, Chlamydomonas reinhardtii.

B1: CrAANAT (Chlamydomonas reinhardtii) (protein)
chain: MAEESLDASVQPLGSTVFFGPVQPEMLDRIHELEAASYPEDEAATYEKLKFRIENASNVFLVALSAEGDGEPKVVGFVCGTQTRASKLTHESMSTHDADGALLCIHSVVVDAALRRRGLATRMLRAYTAFVAATSPGLTGIRLLTKQNLIPLYEGAGFTLLGPSDVEHGADLWYECAMELEAEEEAEAAEA
notes: full length, 191 residues, codon-optimized synthetic gene; N-terminal GST fusion with C-terminal His6 (GST-CrAANAT-His6, pET60), tags kept
Turning to B1, the Michaelis-Menten constant (Km) came out at 247 µM.

The record behind these values is PMC9405056, “Functional Characterization of Arylalkylamine N-Acetyltransferase, a Pivotal Gene in Antioxidant Melatonin Biosynthesis from Chlamydomonas reinhardtii” (Antioxidants, 2022).
